Values joined by “and” are separate entries in the source; they are usually repeats but may differ in a detail not shown here. Identical values can stand only once.
Biological target: the molecule itself
Assay: cross-linking; S100A12 (1 µg) and SAA (1 µg), alone or together, with bis[sulfosuccinimidyl] suberate (BS3, 5 µM) in PBS, in the presence or absence of 1 mM Ca2+, 30 min at RT in the dark; 10% SDS-PAGE under non-reducing conditions, silver stain

B1: Human recombinant S100A12 (natural protein, UniProt P80511 1-92, looked up)
chain: MTKLEEHLEGIVNIFHQYSVRKGHFDTLSKGELKQLLTKELANTIKNIKDKAVIDEIFQGLDANQDEQVDFQEFISLVAIALKAAHYHTHKE
notes: S100A12, human, recombinant
stoichiometry N: 2 and 4

From publication PMC3634854, “S100A12 Suppresses Pro-inflammatory, but Not Pro-Thrombotic Functions of Serum Amyloid A” (PLoS ONE, 2013)
